The target of experiment [1] is CHO-expressed soluble CD4 (UniProt P01730).
The target in experiment [2] is soluble recombinant DC-SIGN, entire extracellular domain (residues 70-404) (UniProt Q9NNX6). The experiment in a line: acoustic biosensor (RapID4); soluble DC-SIGN amine-coupled, BSA on the control cell; purified or unpurified inactivated virus 34-250 nM (by p24, 2500 gag per virion); Langmuir kinetic model.
The target of experiment [3] is HIV-1 IIIB gp140 (soluble, trimeric ectodomain of the envelope glycoprotein, residues 31-665) (HIV-1 strain IIIB (clade B, X4), molecular clone pBH10) (UniProt P03375). The experiment in a line: SPR; gp140 immobilised by direct amine coupling on CM5 (560 RU BX08, 620 RU IIIB); fluid phase DC-SIGN 50-600 nM or Langerin 25-200 nM; HBS-P pH 7.4 with 10 mM CaCl2; heterogeneous analyte model (KD2 oligomer, KD1 monomer). (In general: SPR reads the build-up and loss of mass on a sensor chip optically.)

The target of experiment [4] is HIV-1 BX08 gp140 (soluble, trimeric ectodomain of the envelope glycoprotein, residues 31-663) (HIV-1 strain 92FR_BX08 (clade B, R5)). The experiment is described as above.
Experiment [5] has as its target HIV-1 IIIB virus particles (envelope glycoprotein on virions) (HIV-1 strain IIIB (clade B)) (UniProt P03375).
Experiment [6] concerns the target HIV-1 BX08 gp140 (soluble, trimeric ectodomain of the envelope glycoprotein, residues 31-663) (HIV-1 strain 92FR_BX08 (clade B, R5)).

pKd: −log10 of the molar value.

The text below walks through data of article PMC3233575.

In general, pKd refers to the Kd on a negative log10 scale, so that one unit is a factor of ten.

soluble recombinant DC-SIGN, entire extracellular domain (residues 70-404) (from UniProt Q9NNX6-1 70-404) (domain or fragment), sequence (Q9NNX6 70-404): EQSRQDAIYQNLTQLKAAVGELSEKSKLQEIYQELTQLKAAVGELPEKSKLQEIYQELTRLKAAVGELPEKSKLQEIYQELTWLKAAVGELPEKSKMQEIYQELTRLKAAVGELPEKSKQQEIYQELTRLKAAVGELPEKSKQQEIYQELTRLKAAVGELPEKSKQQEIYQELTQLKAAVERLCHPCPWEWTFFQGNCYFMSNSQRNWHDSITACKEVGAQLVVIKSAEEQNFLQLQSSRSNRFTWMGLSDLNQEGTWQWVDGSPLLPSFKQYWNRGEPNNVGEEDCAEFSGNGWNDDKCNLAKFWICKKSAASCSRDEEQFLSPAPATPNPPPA
soluble recombinant DC-SIGN, entire extracellular domain (residues 70-404) (UniProt Q9NNX6), sequence (Q9NNX6 70-404): as above
soluble recombinant Langerin, full extracellular domain (residues 56-328), sequence (Q9UJ71 56-328): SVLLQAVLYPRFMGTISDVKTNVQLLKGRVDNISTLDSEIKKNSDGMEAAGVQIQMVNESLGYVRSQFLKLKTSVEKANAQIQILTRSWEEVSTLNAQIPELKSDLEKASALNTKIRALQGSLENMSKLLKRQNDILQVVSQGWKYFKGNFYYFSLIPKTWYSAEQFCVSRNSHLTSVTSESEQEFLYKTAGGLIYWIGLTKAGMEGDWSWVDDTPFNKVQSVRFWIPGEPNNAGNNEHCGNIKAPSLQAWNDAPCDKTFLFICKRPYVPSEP

As to “HIV-1 BX08 gp140 (soluble, trimeric ectodomain of the envelope glycoprotein, residues 31-663) (domain or fragment)”, the maximum enhancement of p24 release from PM1 cells infected with HIV-1 BX08 pre-incubated with soluble DC-SIGN at <1 nM, against no treatment in experiment [1] came to 3.6 fold.
For the substance “HIV-1 IIIB virus particles (envelope glycoprotein on virions) (from UniProt P03375 33-511; P03375 512-856) (complex)”, in experiment [1], the maximum enhancement of p24 release from PM1 cells infected with HIV-1 IIIB pre-incubated with soluble DC-SIGN at <1 nM, against no treatment is 15.3 fold. Also, the pKd in experiment [2] was 7.02.
Take “HIV-1 IIIBx virus particles (envelope glycoprotein on virions), CD4-independent variant of IIIB (from UniProt P03375 33-511; P03375 512-856) (complex)”: the pKd in experiment [2] is 7.70.
Take “soluble recombinant DC-SIGN, entire extracellular domain (residues 70-404) (from UniProt Q9NNX6-1 70-404) (domain or fragment)”: the KD2 (tetrameric form, heterogeneous analyte model) was 0.063 µM in experiment [3] and 0.062 µM in experiment [4]. In experiment [5], this substance had an IC50 of soluble DC-SIGN for inhibition of HIV-1 IIIB replication in PM1 cells (p24 release, 10 days); pair said to be blocked: envelope protein with CD4 of 4 nM. Further, in experiment [6], the IC50 of soluble DC-SIGN for inhibition of HIV-1 BX08 replication in PM1 cells (p24 release, 10 days); pair said to be blocked: envelope protein with CD4 came to 2.5 nM.
In the case of “soluble recombinant Langerin, full extracellular domain (residues 56-328) (from UniProt Q9UJ71 56-328) (domain or fragment)”, the figures for the KD2 (trimeric form, heterogeneous analyte model) in experiment [3] and in experiment [4] were 0.011 µM and 0.024 µM, respectively.
